What all share (assay): cell-based or functional assay
In one assay the target is glucagon receptor (UniProt P47871 26-477, limits assumed).
The target in a further assay is GLP-1 receptor (UniProt P43220 24-463, limits assumed).
Another assay concerns the target T1, GIP receptor (UniProt P48546 22-466, limits assumed).
T1 sequence (looked up): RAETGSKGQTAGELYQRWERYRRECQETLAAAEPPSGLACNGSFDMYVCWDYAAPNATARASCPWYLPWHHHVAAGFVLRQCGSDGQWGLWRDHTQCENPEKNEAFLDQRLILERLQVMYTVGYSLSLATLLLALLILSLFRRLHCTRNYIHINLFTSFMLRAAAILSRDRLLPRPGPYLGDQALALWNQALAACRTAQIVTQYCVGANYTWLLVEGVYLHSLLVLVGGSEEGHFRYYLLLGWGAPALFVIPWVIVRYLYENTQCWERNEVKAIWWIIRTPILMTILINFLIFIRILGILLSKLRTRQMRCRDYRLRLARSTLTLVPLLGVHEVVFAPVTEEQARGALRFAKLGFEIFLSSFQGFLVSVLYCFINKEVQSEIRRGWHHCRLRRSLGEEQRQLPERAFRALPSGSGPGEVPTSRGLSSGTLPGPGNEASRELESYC

*1 amine or outer side, *2 acyl side, *3 side chain or, on linkers, in order; H or OH if unused. Where no end group is shown, it is not given here. Side-chain parts run from the residue outwards. [ ]: non-standard residue; d: D form. The star is where a group is joined. γGlu = O=C(O)[C@H](CCC(=O)[*:2])N[*:1]; Palmitoyl = CCCCCCCCCCCCCCCC(=O)*; Aib = CC(C)(N)C(=O)O

Chain of GLP-1 receptor (P43220 24-463 limits assumed): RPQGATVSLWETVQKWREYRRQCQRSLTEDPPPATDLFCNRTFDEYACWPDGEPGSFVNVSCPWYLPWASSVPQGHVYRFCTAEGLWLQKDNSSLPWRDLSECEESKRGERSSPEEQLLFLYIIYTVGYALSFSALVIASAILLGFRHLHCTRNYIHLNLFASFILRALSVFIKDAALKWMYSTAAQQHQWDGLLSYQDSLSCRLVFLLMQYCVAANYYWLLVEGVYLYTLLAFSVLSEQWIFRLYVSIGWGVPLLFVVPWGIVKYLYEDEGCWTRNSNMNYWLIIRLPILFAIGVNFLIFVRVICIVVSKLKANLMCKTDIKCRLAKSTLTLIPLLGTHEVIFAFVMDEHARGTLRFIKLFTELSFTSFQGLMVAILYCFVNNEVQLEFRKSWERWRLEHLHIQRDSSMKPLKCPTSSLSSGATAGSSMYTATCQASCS
Chain of glucagon receptor (P47871 26-477 limits assumed): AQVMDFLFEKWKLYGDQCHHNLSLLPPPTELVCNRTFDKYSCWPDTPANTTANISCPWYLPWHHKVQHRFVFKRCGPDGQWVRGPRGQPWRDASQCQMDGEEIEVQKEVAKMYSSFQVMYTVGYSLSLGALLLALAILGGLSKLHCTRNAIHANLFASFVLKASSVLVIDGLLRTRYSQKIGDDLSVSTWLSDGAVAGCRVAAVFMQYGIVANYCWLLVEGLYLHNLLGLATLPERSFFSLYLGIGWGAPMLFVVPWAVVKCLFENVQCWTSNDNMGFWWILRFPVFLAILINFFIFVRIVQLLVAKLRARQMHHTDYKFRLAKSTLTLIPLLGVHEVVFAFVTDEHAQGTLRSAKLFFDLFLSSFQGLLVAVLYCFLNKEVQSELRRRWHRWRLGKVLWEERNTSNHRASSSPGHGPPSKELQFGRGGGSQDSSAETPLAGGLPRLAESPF

What is called EC50 is the concentration needed to bring the measured effect to its halfway point. A high value points to a less potent agent. For the molecule H[Aib]QGTFTSEYSKYLDERAAQDFVQWLLDGGPSSGAPPPSK([γGlu-γGlu-Palmitoyl])G-NH2 [peptide of SEQ ID NO: 16], the 50% effective concentration (EC50) at Glucagon Receptor in the assay with glucagon receptor was determined as 28 pM. For the same molecule, the “EC50 at GLP-1 Receptor” value in the assay with GLP-1 receptor was 2 pM. Moreover, a half-maximal response in the assay with GIP receptor (EC50 at GIP Receptor) required 54 pM.

For the molecule H[Aib]QGTFTSDYSKYLEERAAQDFVQWLLDGGPSSGAPPPSK([γGlu-γGlu-Palmitoyl])G-NH2 [peptide of SEQ ID NO: 15], the 50% effective concentration (EC50) at Glucagon Receptor in the assay with glucagon receptor was determined as 5 pM. Besides, the “EC50 at GLP-1 Receptor” value with GLP-1 receptor is 3 pM. In addition, a half-maximal effect with GIP receptor (EC50 at GIP Receptor) was put at 8 pM.

B1: peptide of SEQ ID NO: 18 (peptide)
peptide: H[Aib]QGTFTSDK([γGlu-Palmitoyl])SKYLEERAAQEFVQWLLEGGPSSGAPPPS-NH2
modifications: N-terminus assumed
SMILES: CCCCCCCCCCCCCCCC(=O)N[C@@H](CCC(=O)NCCCC[C@H](NC(=O)[C@H](CC(=O)O)NC(=O)[C@H](CO)NC(=O)[C@@H](NC(=O)[C@H](Cc1ccccc1)NC(=O)[C@@H](NC(=O)CNC(=O)[C@H](CCC(N)=O)NC(=O)C(C)(C)NC(=O)[C@@H](N)Cc1c[nH]cn1)[C@@H](C)O)[C@@H](C)O)C(=O)N[C@@H](CO)C(=O)N[C@@H](CCCCN)C(=O)N[C@@H](Cc1ccc(O)cc1)C(=O)N[C@@H](CC(C)C)C(=O)N[C@@H](CCC(=O)O)C(=O)N[C@@H](CCC(=O)O)C(=O)N[C@@H](CCCNC(=N)N)C(=O)N[C@@H](C)C(=O)N[C@@H](C)C(=O)N[C@@H](CCC(N)=O)C(=O)N[C@@H](CCC(=O)O)C(=O)N[C@@H](Cc1ccccc1)C(=O)N[C@H](C(=O)N[C@@H](CCC(N)=O)C(=O)N[C@@H](Cc1c[nH]c2ccccc12)C(=O)N[C@@H](CC(C)C)C(=O)N[C@@H](CC(C)C)C(=O)N[C@@H](CCC(=O)O)C(=O)NCC(=O)NCC(=O)N1CCC[C@H]1C(=O)N[C@@H](CO)C(=O)N[C@@H](CO)C(=O)NCC(=O)N[C@@H](C)C(=O)N1CCC[C@H]1C(=O)N1CCC[C@H]1C(=O)N1CCC[C@H]1C(=O)N[C@@H](CO)C(N)=O)C(C)C)C(=O)O
On to B1, for which the “EC50 at Glucagon Receptor” value with glucagon receptor stood at 7 pM. Moreover, in the assay with GLP-1 receptor, a half-maximal effect (EC50 at GLP-1 Receptor) was put at 8 pM. In the assay with GIP receptor, the response was half-maximal at 7 pM (EC50 at GIP Receptor).

B2: peptide of SEQ ID NO: 44 (peptide)
peptide: H[Aib]EGTFTSDK([γGlu-Palmitoyl])SKYLDERAAQDFVQWLLEGGPSSGAPPPS-NH2
modifications: N-terminus assumed
SMILES: CCCCCCCCCCCCCCCC(=O)N[C@@H](CCC(=O)NCCCC[C@H](NC(=O)[C@H](CC(=O)O)NC(=O)[C@H](CO)NC(=O)[C@@H](NC(=O)[C@H](Cc1ccccc1)NC(=O)[C@@H](NC(=O)CNC(=O)[C@H](CCC(=O)O)NC(=O)C(C)(C)NC(=O)[C@@H](N)Cc1c[nH]cn1)[C@@H](C)O)[C@@H](C)O)C(=O)N[C@@H](CO)C(=O)N[C@@H](CCCCN)C(=O)N[C@@H](Cc1ccc(O)cc1)C(=O)N[C@@H](CC(C)C)C(=O)N[C@@H](CC(=O)O)C(=O)N[C@@H](CCC(=O)O)C(=O)N[C@@H](CCCNC(=N)N)C(=O)N[C@@H](C)C(=O)N[C@@H](C)C(=O)N[C@@H](CCC(N)=O)C(=O)N[C@@H](CC(=O)O)C(=O)N[C@@H](Cc1ccccc1)C(=O)N[C@H](C(=O)N[C@@H](CCC(N)=O)C(=O)N[C@@H](Cc1c[nH]c2ccccc12)C(=O)N[C@@H](CC(C)C)C(=O)N[C@@H](CC(C)C)C(=O)N[C@@H](CCC(=O)O)C(=O)NCC(=O)NCC(=O)N1CCC[C@H]1C(=O)N[C@@H](CO)C(=O)N[C@@H](CO)C(=O)NCC(=O)N[C@@H](C)C(=O)N1CCC[C@H]1C(=O)N1CCC[C@H]1C(=O)N1CCC[C@H]1C(=O)N[C@@H](CO)C(N)=O)C(C)C)C(=O)O
As for B2, it took 1470 pM to reach a half-maximal effect in the assay with glucagon receptor (EC50 at Glucagon Receptor). The response with GLP-1 receptor was half-maximal at 7 pM (EC50 at GLP-1 Receptor). The “EC50 at GIP Receptor” value with GIP receptor amounted to 27 pM.

For the molecule H[Aib]QGTFTSDYAKYLDERAAQDFVQWLLDGGPSSGAPPPSK([γGlu-γGlu-Palmitoyl])G-NH2 [peptide of SEQ ID NO: 17], the “EC50 at Glucagon Receptor” value in the assay with glucagon receptor turned out to be 19 pM. Further, the “EC50 at GLP-1 Receptor” value with GLP-1 receptor was 8 pM. Moreover, a half-maximal response with GIP receptor (EC50 at GIP Receptor) required 20 pM.

Regarding H[Aib]QGTFTSDYSKYLDERAAQDFVQWLLDGGPSSGAPPPSK([γGlu-γGlu-Palmitoyl])G-NH2 [peptide of SEQ ID NO: 11], in the assay with glucagon receptor, the half-maximal effective concentration (EC50) at Glucagon Receptor was determined as 4 pM. Further, in the assay with GLP-1 receptor, the 50% effective concentration (EC50) at GLP-1 Receptor was found to be 1 pM. Also, the 50% effective concentration (EC50) at GIP Receptor with GIP receptor was determined as 24 pM.

As to H[Aib]QGTFTSDK([γGlu-Palmitoyl])SKYLDERAAQDFVQWLLDGGPSSGAPPPS-NH2 [peptide of SEQ ID NO: 10], the concentration giving a half-maximal response (EC50) at Glucagon Receptor with glucagon receptor is 4 pM. The concentration giving a half-maximal response (EC50) at GLP-1 Receptor with GLP-1 receptor was 4 pM. Moreover, the midpoint of the response with GIP receptor, the EC50 at GIP Receptor, lay at 4 pM.

B3: peptide of SEQ ID NO: 43 (peptide)
peptide: H[Aib]QGTFTSDK([γGlu-Palmitoyl])SKYLDERAAQDFVQWLLEGGPSSGAPPPS-NH2
modifications: N-terminus assumed
SMILES: CCCCCCCCCCCCCCCC(=O)N[C@@H](CCC(=O)NCCCC[C@H](NC(=O)[C@H](CC(=O)O)NC(=O)[C@H](CO)NC(=O)[C@@H](NC(=O)[C@H](Cc1ccccc1)NC(=O)[C@@H](NC(=O)CNC(=O)[C@H](CCC(N)=O)NC(=O)C(C)(C)NC(=O)[C@@H](N)Cc1c[nH]cn1)[C@@H](C)O)[C@@H](C)O)C(=O)N[C@@H](CO)C(=O)N[C@@H](CCCCN)C(=O)N[C@@H](Cc1ccc(O)cc1)C(=O)N[C@@H](CC(C)C)C(=O)N[C@@H](CC(=O)O)C(=O)N[C@@H](CCC(=O)O)C(=O)N[C@@H](CCCNC(=N)N)C(=O)N[C@@H](C)C(=O)N[C@@H](C)C(=O)N[C@@H](CCC(N)=O)C(=O)N[C@@H](CC(=O)O)C(=O)N[C@@H](Cc1ccccc1)C(=O)N[C@H](C(=O)N[C@@H](CCC(N)=O)C(=O)N[C@@H](Cc1c[nH]c2ccccc12)C(=O)N[C@@H](CC(C)C)C(=O)N[C@@H](CC(C)C)C(=O)N[C@@H](CCC(=O)O)C(=O)NCC(=O)NCC(=O)N1CCC[C@H]1C(=O)N[C@@H](CO)C(=O)N[C@@H](CO)C(=O)NCC(=O)N[C@@H](C)C(=O)N1CCC[C@H]1C(=O)N1CCC[C@H]1C(=O)N1CCC[C@H]1C(=O)N[C@@H](CO)C(N)=O)C(C)C)C(=O)O
Turning to B3, the response with glucagon receptor was half-maximal at 6 pM (EC50 at Glucagon Receptor). The 50% effective concentration (EC50) at GLP-1 Receptor with GLP-1 receptor worked out at 4 pM. For the same molecule, the “EC50 at GIP Receptor” value with GIP receptor is 5 pM.

For the origin of these results see patent publication US20140011738A1 (INDIANA UNIVERSITY RESEARCH AND TECHNOLOGY, published 2014).
